The results in this text go back to patent publication US8357523B2, “Beta-glucosidase variant enzymes and related polynucleotides” (Codexis, Inc., priority 2009, dated 2013).

The labels stand for the following.
B1: 145 (protein)
chain: STAIAQEGAAPAAILHPEKWPRPATQRLIDPAVEKRVDALLKQLSVEEKVGQVIQGDIGTITPEDLRKYPLGSILAGGDSGPNGDDRAPPKEWLDLADAFYRVSLEKRPGHTPIPVLFGIDAVHGHGNIGSATIFPHNIALGATRSPELLRRIGEVTAEEMAATGIDWTFAPALSVVRDDRWGRTYEGFSEDPEIVASYSAAIVEGVQGKYGSKDFMAPGRIVACAKHFLADGGTDQGRDQGDARISEDELIRIHNAGYPPAIDAGVLTVMASFSSWQGIKHHGHKQLLTDVLKGQMGFNGFIVGDWNAHDQVPGCTKFNCPTSLIAGLDMYMAADSWKQLYENTLAQVKDGTIPMARLDDAVRRILRVKVLAGLFEKPAPKDRPGLPGLETLGSPEHRAVGREAVRKSLVLLKNDKGTLPLSPKARVLVAGDGADNIGKQSGGWTISWQGTGNRNDEFPGATSILGGIRDAVADAGGSVEFDVAGQYKTKPDVAIVVFGEEPYAEFQGDVETLEYQPDQKQDLALLKKLKDQGIPVVAVFLSGRPMWVNPELNASDAFVAAWLPGTEGGGVADVLFTDKAGKVQHDFAGKLSYSWPRTAAQTTVNRGDADYNPLFAYGYGLTYKDKSKVGTLPEESGVPAEARQNAGIYFRAGALRLPGRFL
B2: 74 (protein)
chain: STAIAQEGAAPAAILHPEKWPRPATQRLIDPAVEKRVDALLKQLSVEEKVGQVIQGDIGTITPEDLRKYPLGSILAGGNSGPNGDDRAPPKEWLDLADAFYRVSLEKRPGHTPIPVLFGIDAVHGHGKIGSATIFPHNIALGATRDPELLRRIGEVTAVEMAATGIDWTFAPALSVVRDDRWGRTYEGFSEDPEIVAAYSPAIVEGVQGKFGSKDFMAPGRIVACAKHFLADGGTDQGRDQGDARISEDELIRIHNAGYPPAIDAGVLTVMASFSSWQGIKHHGHKQLLTDVLKGQMGFNGFIVGDWNAHDQVPGCTKFNCPTSLIAGLDMYMAADSWKQLYENTLAQVKDGTIPMARLDDAVRRILRVKVLAGLFEKPAPKDRPGLPGLETLGSPEHRAVGREAVRKSLVLLKNDKGTLPLSPKARVLVAGDGADNIGKQSGGWTISWQGTGNRNDEFPGATSILGGIRDAVADAGGSVEFDVAGQYKTKPDVAIVVFGEEPYAEFQGDVETLEYQPDQKQDLALLKKLKDQGIPVVAVFLSGRPMWVNPELNASDAFVAAWLPGTEGGGVADVLFTDKAGKVQHDFAGKLSYSWPRTAAQTTVNRGDADYNPLFAYGYGLTYKDKSKVGTLPEESGVPAEARQNAGIYFRAGALRLPGRFL
B3: 146 (protein)
chain: STAIAQEGAAPAAILHPEKWPRPATQRLIDPAVEKRVDALLKQLSVEEKVGQVIQGDIGTITPEDLRKYPLGSILAGGDSGPNGDDRAPPKEWLDLADAFYRVSLEKRPGHTPIPVLFGIDAVHGHGNIGSATIFPHNIALGMTRDPELLRRIGEVTAQEMAATGIDWTFAPALSVVRDDRWGRTYEGFSEDPEIVAAYSPAIVEGVQGKFGSKDFMAPGRIVACAKHFLADGGTDQGRDQGDARISEDELIRIHNAGYPPAIDAGVLTVMASFSSWQGIKHHGHKQLLTDVLKGQMGFNGFIVGDWNAHDQVPGCTKFNCPTSLIAGLDMYMAADSWKQLYENTLAQVKDGTIPMARLDDAVRRILRVKVLAGLFERPAPKDRPGLPGLETLGSPEHRAVGREAVRKSLVLLKNDKGTLPLSPKARVLVAGDGADNIGKQSGGWTISWQGTGNRNDEFPGATSILGGIRDAVADAGGSVEFDVAGQYKTKPDVAIVVFGEEPYAEFQGDVETLEYQPDQKQDLALLKKLKDQGIPVVAVFLSGRPMWVNPELNASDAFVAAWLPGTEGGGVADVLFTDKAGKVQHDFAGKLSYSWPRTAAQTTVNRGDADYNPLFAYGYGLTYKDKSKVGTLPEESGVPAEARQNAGIYFRAGALRLPGRFL
B4: 147 (protein)
chain: STAIAQEGAAPAAILHPEKWPRPATQRLIDPAVEKRVDALLKQLSVEEKVGQVIQGDIGTITPEDLRKYPLGSILAGGDSGPNGDDRAPPKEWLDLADAFYRVSLEKRPGHTPIPVLFGIDAVHGHGKIGSATIFPHNIALGATRDPELLRRIGEVTAVEMAATGIDWTFAPCLSVVRDDRWGRTYEGFSEDPEIVASYSAAIVEGVQGKYGSKDFMAPGRSVASAKHFLADGGTDQGRDQGDARISEDELIRIHNAGYPPAIDAGVLTVMASFSSWQGIKHHGHKQLLTDVLKGQMGFNGFIVGDWNAHDQVPGCTKFNCPTSLIAGLDMYMAADSWKQLYENTLAQVKDGTIPMARLDDAVRRILRVKVLAGLFEKPAPKDRPGLPGLETLGSPEHRAVGREAVRKSLVLLKNDKGTLPLSPKARVLVAGDGADNIGKQSGGWTISWQGTGNRNDEFPGATSILGGIRDAVADAGGSVEFDVAGQYKTKPDVAIVVFGEEPYAEFQGDVETLEYQPDQKQDLALLKKLKDQGIPVVAVFLSGRPMWVNPELNASDAFVAAWLPGTEGGGVADVLFTDKAGKVQHDFAGKLSYSWPRTAAQTTVNRGDADYNPLFAYGYGLTYKDKSKVGTLPEESGVPAEARQNAGIYFRAGALRLPGRFL
B5: 151 (protein)
chain: STAIAQEGAAPAAILHPEKWPRPATQRLIDPAVEKRVDALLKQLSVEEKVGQVIQGDIGTITPEDLRKYPLGSILAGGNSGPNGDDRAPPKEWLDLADAFYRVSLEKRPGHTPIPVLFGIDAVHGHGNIGSATIFPHNIALGMTRDPELLRRIGEVTAVEMTATGIDWTFAPCLSVVRDDRWGRTYEGFSEDPEIVASYSAAIVEGVQGKYGSKDFMAPGRIVASAKHFLADGGTDQGRDQGDARISEDELIRIHNAGYPPAIDAGVLTVMASFSSWQGIKHHGHKQLLTDVLKGQMGFNGFIVGDWNAHDQVPGCTKFNCPTSLIAGLDMYMAADSWKQLYENTLAQVKDGTIPMARLDDAVRRILRVKVLAGLFEKPAPKDRPGLPGLETLGSPEHRAVGREAVRKSLVLLKNDKGTLPLSPKARVLVAGDGADNIGKQSGGWTISWQGTGNRNDEFPGATSILGGIRDAVADAGGSVEFDVAGQYKTKPDVAIVVFGEEPYAEFQGDVETQEYQPDQKQDLALLKKLKDQGIPVVAVFLSGRPMWVNPELNASDAFVAAWLPGTEGGGVADVLFTDKAGKVQHDFAGKLSYSWPRTAAQTTVNRGDADYNPLFAYGYGLTYKDKSKVGTLPEESGVPAEARQNAGIYFRAGALRLPGRFL
B6: 148 (protein)
chain: STAIAQEGAAPAAILHPEKWPRPATQRLIDPAVEKRVDALLKQLSVEEKVGQVIQGDIGTITPEDLRKYPLGSILAGGDSGPNGDDRAPPKEWLDLADAFYRVSLEKRPGHTPIPVLFGIDAVHGHGNIGSATIFPHNIALGATRDPELLRRIGEVTAEEMAATGIDWTFAPALSVVRDDRWGRTYEGFSEDPEIVASYSAAIVEGVQGKFGSKDFMAPGRIVACAKHFLADGGTDQGRDQGDARISEDELIRIHNAGYPPAIDAGVLTVMASFSSWQGIKHHGHKQLLTDVLKGQMGFNGFIVGDWNAHDQVPGCTKFNCPTSLIAGLDMYMAADSWKQLYENTLAQVKDGTIPMARLDDAVRRILRVKVLAGLFEKPAPKDRPGLPGLETLGSPEHRAVGREAVRKSLVLLKNDKGTLPLSPKARVLVAGDGADNIGKQSGGWTISWQGTGNRNDEFPGATSILGGIRDAVADAGGSVEFDVAGQYKTKPDVAIVVFGEEPYAEFQGDVETLEYQPDQKQDLALLKKLKDQGIPVVAVFLSGRPMWVNPELNASDAFVAAWLPGTEGGGVADVLFTDKAGKVQHDFAGKLSYSWPRTAAQTTVNRGDADYNPLFAYGYGLTYKDKSKVGTLPEESGVPAEARQNAGIYFRAGALRLPGRFL
B7: 150 (protein)
chain: STAIAQEGAAPAAILHPEKWPRPATQRLIDPAVEKRVDALLKQLSVEEKVGQVIQGDIGTITPEDLRKYPLGSILAGGDSGPNGDDRAPPKEWLDLADAFYRVSLEKRPGHTPVPVLFGIDAVHGHGKIGSATIFPHNIALGATRDPELLRRIGEVTAVEMTATGIDWTFAPALSVVRDDRWGRTYEGFSEDPEIVASYSAAIVEGVQGKYGSKDFMAPGRIVACAKHFLADGGTDQGRDQGDARISEDELIRIHNAGYPPAIDAGVLTVMASFSSWQGIKHHGHKQLLTDVLKGQMGFNGFIVGDWNAHDQVPGCTKFNCPTSLIAGLDMYMAADSWKQLYENTLAQVKDGTIPMARLDDAVRRILRVKVLAGLFEKPAPKDRPGLPGLETLGSPEHRAVGREAVRKSLVLLKNDKGTLPLSPKARVLVAGDGADNIGKQSGGWTISWQGTGNRNDEFPGATSILGGIRDAVADAGGSVEFDVAGQYKTKPDVAIVVFGEEPYAEFQGDVETLEYQPDQKQDLALLKKLKDQGIPVVAVFLSGRPMWVNPELNASDAFVAAWLPGTEGGGVADVLFTDKAGKVQHDFAGKLSYSWPRTAAQTTVNRGDADYNPLFAYGYGLTYKDKSKVGTLPEESGVPAEARQNAGIYFRAGALRLPGRFL
B8: 149 (protein)
chain: STAIAQEGAAPAAILHPEKWPRPATQRLIDPAVEKRVDALLKQLSVEEKVGQVIQGDIGTITPEDLRKYPLGSILAGGDSGPNGDDRAPPKEWLDLADAFYRVSLEKRPGHTPIPVLFGIDAVHGHGKIGSATIFPHNIALGATRSPELLRRIGEVTAQEMAATGIDWTFAPALSVVRDDRWGRTYEGFSEDPEIVAAYSPAIVEGVQGKYGSKDFMAPGRIVACAKHFLADGGTDQGRDQGDARISEDELIRIHNAGYPPAIDAGVLTVMASFSSWQGIKHHGHKQLLTDVLKGQMGFNGFIVGDWNAHDQVPGCTKFNCPTSLIAGLDMYMAADSWKQLYENTLAQVKDGTIPMARLDDAVRRILRVKVLAGLFEKPAPKDRPGLPGLETLGSPEHRAVGREAVRKSLVLLKNDKGTLPLSPKARVLVAGDGADNIGKQSGGWTISWQGTGNRNDEFPGATSILGGIRDAVADAGGSVEFDVAGQYKTKPDVAIVVFGEEPYAEFQGDVETLEYQPDQKQDLALLKKLKDQGIPVVAVFLSGRPMWVNPELNASDAFVAAWLPGTEGGGVADVLFTDKAGKVQHDFAGKLSYSWPRTAAQTTVNRGDADYNPLFAYGYGLTYKDKSKVGTLPEESGVPAEARQNAGIYFRAGALRLPGRFL

The nature of the data set: High throughput cellobiose assay: fold improvement in cellobiase activity of CelA variants over a control enzyme (Tables 2A-2D, 3, 5, 6, 7). In kind it is biochemical. Particulars: 3.3 g/l cellobiose, 55° C. and pH 6.0.
For the molecule B1, the “Fold improvement over Control Variant No. 5 from Table 2A” value was “+++ (+++ = 6 to 13 fold improvement over control Variant No. 2)”. On to B2, for which the “Fold improvement over Control Variant No. 5 from Table 2A” value was “++ (++ = 1.1 to 6 fold improvement over control Variant No. 2)”.

As for B3, the “Fold improvement over Control Variant No. 5 from Table 2A” value is listed as “+++ (+++ = 6 to 13 fold improvement over control Variant No. 2)”.

B4: the “Fold improvement over Control Variant No. 5 from Table 2A” value is reported as “+++ (+++ = 6 to 13 fold improvement over control Variant No. 2)”. On to B5, for which the “Fold improvement over Control Variant No. 5 from Table 2A” value is listed as “+++ (+++ = 6 to 13 fold improvement over control Variant No. 2)”. With B6 the entry was “+++ (+++ = 6 to 13 fold improvement over control Variant No. 2)”.

In the case of B7, the “Fold improvement over Control Variant No. 5 from Table 2A” value was “+++ (+++ = 6 to 13 fold improvement over control Variant No. 2)”. As for B8, the “Fold improvement over Control Variant No. 5 from Table 2A” value is recorded as “+++ (+++ = 6 to 13 fold improvement over control Variant No. 2)”.
